Reference: the supplement of paper PMC10567573

B1: LOXL2 (parent)
chain: FSPDGPSRFRKAYKPEQPLVRLRG

Variants of: B1
Experiment: protein stability index of a GFP-peptide fusion (GPS, HEK-293T) (PSI 1-6); higher = more stable
Conditions: c terminus: a fixed tail appended
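Also: lentivirally expressed fusions sorted by FACS into six bins by GFP to DsRed ratio, PSI derived from sequencing read proportions per bin multiplied by bin number.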

Protein stability index of substitutions, site by site:
P3: Q 2.17, R 2.12, S 2.31, T 2.21, V 2.6, W 1.66, Y 2.13
D4: A 1.62, C 2.21, E 2.44, F 1.66, G 1.98, H 1.41, I 1.71, K 1.97, L 1.78, M 1.71, N 1.73, P 1.07, Q 2.57, S 1.52, T 2.01, V 2.38, W 2.58, Y 2.82
G5: A 1.47, C 2.03, D 1.62, E 2.35, F 2.33, H 2.65, I 2.51, K 2.17, L 2.02, M 1.69, N 2.66, P 2.21, Q 2.33, R 1.74, S 2.38, T 1.92, V 1.59, Y 1.83
P6: A 2.22, D 1.63, E 2, G 1.54, H 3.98, I 2.52, K 1.98, L 3.07, M 1.56, N 1.8, Q 2.16, T 1.88, Y 2.16
S7: A 1, C 3.07, D 1.69, E 2.01, F 2.09, G 2.2, H 2.54, I 2.58, K 1.94, L 4, M 1.96, N 2.89, P 2.18, Q 2.32, R 2.05, T 1.49, V 1.64, Y 2.62
R8: A 2.89, D 2.31, E 1.81, F 2.75, G 2.02, H 2.23, I 4.19, K 1.27, L 1.5, N 1.71, P 2.76, Q 2.42, S 2.66, T 2.1, V 2.88, W 3.95, Y 2.66
F9: A 2.52, C 2.78, D 3.29, E 3.71, G 3.03, H 2.81, I 2.23, K 2.58, L 2.01, M 2.56, N 2.85, P 3.29, Q 3.94, R 2.58, S 2.56, T 2.27, V 2.05, W 2.45, Y 3.04
R10: C 3.46, D 2.2, E 2.5, F 4, G 1.78, H 1.02, I 2.8, K 1.75, L 1.97, M 2.1, N 1.94, P 2.14, Q 1.99, S 3.35, V 2.46, Y 1.98
K11: D 1.28, E 3.54, F 2.21, G 2.27, H 1.64, I 1.76, L 2.31, M 2.98, N 2.7, P 2.41, Q 3.17, R 2.72, S 1.62, T 3.77, V 2.66, Y 2.6
A12: C 1.88, D 2.03, E 2.15, F 1.57, G 2.44, H 1.8, I 3.12, K 2, L 2.35, N 2.11, P 2.13, Q 1.96, R 1.42, S 1.9, T 2.59, V 2.3, W 4.25, Y 1.91
Y13: A 2.05, C 3.06, D 3.33, E 2.15, F 1.91, G 2.06, H 1.81
